In patent US20020039573A1:
Blank lines part the entries; values can stand above or below the substance they belong to.

How the values were obtained:
Experiment in all cases: cell-based or functional assay
[1] = target: HLA-A2 (human)
[2] = target: HLA-B and -C
[3] = target: HLA-A, -B and -C

γ-IFN Elispot, ICD-specific CD8+ T cell line on Fibro/ICD stimulators pre-incubated with antibody (50 µg/mL) (Elispot spots per well) [1]: 213
γ-IFN Elispot, clone 17D5 on Fibro/ICD stimulators, antibody at 25 µg/mL (Elispot spots per well) [1]: 165
γ-IFN Elispot, clone 17D5 on Fibros-H2N stimulators, antibody at 25 µg/mL (Elispot spots per well) [1]: 98
Substance: monoclonal antibody BB7.2

γ-IFN Elispot, ICD-specific CD8+ T cell line on Fibro/ICD stimulators pre-incubated with antibody (50 µg/mL) (Elispot spots per well) [2]: 5
γ-IFN Elispot, clone 17D5 on Fibro/ICD stimulators, antibody at 25 µg/mL (Elispot spots per well) [2]: 1
γ-IFN Elispot, clone 17D5 on Fibros-H2N stimulators, antibody at 25 µg/mL (Elispot spots per well) [2]: 0
Substance: monoclonal antibody BB123.2

γ-IFN Elispot, ICD-specific CD8+ T cell line on Fibro/ICD stimulators pre-incubated with antibody (50 µg/mL) (Elispot spots per well) [3]: 4
γ-IFN Elispot, clone 17D5 on Fibro/ICD stimulators, antibody at 25 µg/mL (Elispot spots per well) [3]: 3
γ-IFN Elispot, clone 17D5 on Fibros-H2N stimulators, antibody at 25 µg/mL (Elispot spots per well) [3]: 0
Substance: monoclonal antibody W6/32
